# From paper PMC3229241, “Neoamphimedine Circumvents Metnase-Enhanced DNA Topoisomerase IIα Activity Through ATP-Competitive Inhibition” (2011)
# Substrate: Nc1ncnc2c1ncn2[C@@H]1O[C@H](COP(=O)(O)OP(=O)(O)OP(=O)(O)O)[C@@H](O)[C@H]1O
# Assay: malachite green ATP hydrolysis assay, Michaelis-Menten Km
# Type: biochemical, Homo sapiens
# Conditions: Mg2+ N-terminal ATPase site
protein,measurement,value
"Type IIα DNA topoisomerase (TopoIIα) (Homo sapiens) (protein, recombinant human TopoIIα) MEVSPLQPVNENMQVNKIKKNEDAKKRLSVERIYQKKTQLEHILLRPDTYIGSVELVTQQMWVYDEDVGINYREVTFVPGLYKIFDEILVNAADNKQRDPKMSCIRVTIDPENNLISIWNNGKGIPVVEHKVEKMYVPALIFGQLLTSSNYDDDEKKVTGGRNGYGAKLCNIFSTKFTVETASREYKKMFKQTWMDNMGRAGEMELKPFNGEDYTCITFQPDLSKFKMQSLDKDIVALMVRRAYDIAGSTKDVKVFLNGNKLPVKGFRSYVDMYLKDKLDETGNSLKVIHEQVNHRWEVCLTMSEKGFQQISFVNSIATSKGGRHVDYVADQIVTKLVDVVKKKNKGGVAVKAHQVKNHMWIFVNALIENPTFDSQTKENMTLQPKSFGSTCQLSEKFIKAAIGCGIVESILNWVKFKAQVQLNKKCSAVKHNRIKGIPKLDDANDAGGRNSTECTLILTEGDSAKTLAVSGLGVVGRDKYGVFPLRGKILNVREASHKQIMENAEINNIIKIVGLQYKKNYEDEDSLKTLRYGKIMIMTDQDQDGSHIKGLLINFIHHNWPSLLRHRFLEEFITPIVKVSKNKQEMAFYSLPEFEEWKSSTPNHKKWKVKYYKGLGTSTSKEAKEYFADMKRHRIQFKYSGPEDDAAISLAFSKKQIDDRKEWLTNFMEDRRQRKLLGLPEDYLYGQTTTYLTYNDFINKELILFSNSDNERSIPSMVDGLKPGQRKVLFTCFKRNDKREVKVAQLAGSVAEMSSYHHGEMSLMMTIINLAQNFVGSNNLNLLQPIGQFGTRLHGGKDSASPRYIFTMLSSLARLLFPPKDDHTLKFLYDDNQRVEPEWYIPIIPMVLINGAEGIGTGWSCKIPNFDVREIVNNIRRLMDGEEPLPMLPSYKNFKGTIEELAPNQYVISGEVAILNSTTIEISELPVRTWTQTYKEQVLEPMLNGTEKTPPLITDYREYHTDTTVKFVVKMTEEKLAEAERVGLHKVFKLQTSLTCNSMVLFDHVGCLKKYDTVLDILRDFFELRLKYYGLRKEWLLGMLGAESAKLNNQARFILEKIDGKIIIENKPKKELIKVLIQRGYDSDPVKAWKEAQQKVPDEEENEESDNEKETEKSDSVTDSGPTFNYLLDMPLWYLTKEKKDELCRLRNEKEQELDTLKRKSPSDLWKEDLATFIEELEAVEAKEKQDEQVGLPGKGGKAKGKKTQMAEVLPSPRGQRVIPRITIEMKAEAEKKNKKKIKNENTEGSPQEDGVELEGLKQRLEKKQKREPGTKTKKQTTLAFKPIKKGKKRNPWSDSESDRSSDESNFDVPPRETEPRRAATKTKFTMDLDSDEDFSDFDEKTDDEDFVPSDASPPKTKTSPKLSNKELKPQKSVVSDLEADDVKGSVPLSSSPPATHFPDETEITNPVPKKNVTVKKTAAKSQSSTSTTGAKKRAAPKGTKRDPALNSGVSQKPDPAKTKNRRKRKPSTSDDSDSNFEKIVSKAVTSKKSKGESDDFHMDFDSAVAPRAKSVRAKKPIKYLEESDEDDLF",Km,390 ± 50 µM
